Measured values as given in patent US12139534B2, “Methods and compositions for decreasing soluble immune receptor CD28” (BIOND BIOLOGICS LTD., priority 2018, dated 2024).

How the values were obtained:
[1] = tested on: isolated CD3 human T cells; experiment: CD3 T cells stimulation with anti-CD3 OKT3, IFN gamma secretion; assay type: cell-based; settings: anti-CD3 stimulation; CD28.2 2.0 μg/mL, antibodies 0.1-10 μg/mL
Procedure: T cells stimulation with OKT3—0.1×10^6 isolated CD3 T cells (from healthy donors) were stimulated with indicated amount of anti-CD3 clone OKT3 for 48-72 hr at 37° C. When stated recombinant human CD80-Fc (2 μg/mL, R&D system) was added in soluble form. Antibodies to CD28 or controls were added at the indicated concentration in soluble form.
CD80 is one of the two main ligands for mCD28 along with CD86. The extracellular domain of CD80 fused to an Fc moiety has been used as an immune stimulatory molecule and is under investigation as a cancer therapy. In order to examine the effect of sCD28 on CD80-Fc efficacy, isolated CD3 human T cells were stimulated with plate bound anti-CD3 antibody (OKT3, 2 μg/mL) in the presence of 2 μg/mL soluble recombinant human CD80-Fc.

[2] = biological target: T1, mCD28 (Homo sapiens, UniProt P10747); experiment: FACS binding to mCD28 on naïve CD3 T cells; settings: antibody 20 μg/mL
T1 construct: expressed in transfected cells
Procedure: Flow Cytometry—Generally, cells were kept on ice during all steps. Prior to staining, 5×10^5 cells were blocked with 50 μg/mL human IgG (Sigma, Cat. No. 14506) in FACS buffer (PBS with 0.1% BSA) for 15 min. Antibodies were used at concentrations recommended by the manufacturer and incubated for 30 min. in the dark. Incubations were done in a volume of 100 μL in 96-well U bottom plates. Cells were washed twice with 200 μL of FACS buffer and transferred to FACS tubes in 150 μL of FACS buffer for analysis. Cells were analyzed on a Gallios Flow Cytometer (Beckman Coulter) using the Kaluza for Gallios Flow Cytometry Acquisition Software.
Lastly, the ability of antibodies #1-3 to bind to mCD28 at all was examined. While it is not essential that a sCD28 antibody not bind mCD28 it is advantageous. Such an antibody could be used for specific detection of the soluble protein, and if used therapeutically would have no effect on the membranal form. Naïve isolated CD3 T cells were evaluated by FACs to assay mCD28 binding. Cells were incubated with antibodies #1-3 (20 μg/mL dark grey histograms) or isotype controls (mIgG, 20 μg/mL, light grey histograms). Binding detection was performed with Alexa Fluor 647-conjugated goat anti mouse secondary antibody.

[3] = tested on: sCD28; experiment: Simulated sweeping of soluble CD28 from plasma with antibody coated magnetic beads; parameters: species or system human; settings: cancer patient plasma; 0.125-2 μg antibody on beads; 37° C. 2 hours
Procedure: Simulated sweeping of soluble CD28 from plasma of cancer patient. Antibodies or recombinant proteins were coated on tosyl-activated magnetic beads (Invitrogen, Cat. No. DY-14203) as described by manufacturer protocol. […] The mixture was incubated in a thermomixer for 2 hr, 1000 RPM at 37° C., followed by removal of the beads using a DynaMag magnet (Invitrogen, Cat. No. 12321D) and the samples were examined using CD28 specific ELISA.
Varying amounts (0.125-2 μg) of antibodies #1 and #2 were loaded onto tosyl-activated magnetic beads according to the manufacturer's protocol (Thermo Fisher Scientific). The loaded beads were then added to plasma samples from a cancer patient, and the mixture was incubated in a thermomixer at 37° C. for 2 hours at 1000 RPM. The beads were isolated and removed from the plasma with a magnet and the amount of sCD28 remaining in the serum was measured by ELISA.
Antibody #1 was further tested on various cancer samples (melanoma, colorectal and ovarian) and compared to three B7 molecules which are known ligands of CD28. About 1.5 μg of antibody #1, CD80, CD86 and ICOSL were each loaded onto tosyl-activated magnetic beads and the beads were mixed with plasma as before. A colorectal sample (FIG. 16C), as well as two melanoma samples (FIG. 16D-E), an ovarian sample (FIG. 16F) and a sample from a healthy donor (FIG. 16G) were all tested.

[4] = biological target: T2, recombinant human CD28 (Homo sapiens, UniProt P10747); experiment: Direct CD28 ELISA on recombinant human CD28; assay type: binding
T2 construct: recombinant human CD28 lacking the transmembrane and cytoplasmic domains; purchased R&D 342-CD

[5] = biological target: T3, recombinant mouse CD28 (Mus musculus, UniProt P31041); experiment: Direct ELISA on recombinant mouse CD28; assay type: binding
T3 construct: ELISA assay on increasing concentrations of mouse sCD28; purchased R&D 483-CD

[6] = biological target: T1, mCD28; experiment: CD86 blocking FACS on HEK293 cells stably transfected with human CD28; assay type: binding; settings: CD86-Fc 5 μg/mL; antibody 20 μg/mL
Procedure: CD86 blocking FACS—0.5×10^6 HEK293 cells stably transfected with human CD28 were incubated with 5 μg/mL CD86-Fc (R&D systems, Cat. No. 141-B2) without or with anti CD28 antibodies (20 μg/mL) for 30 min in room temperature. Cells were washed and taken for secondary binding using anti-human heavy and light chains antibody conjugated to fluorophore at 1:5000 dilution for 20 min on ice.

T3 sequence (P31041 20-150 limits assumed): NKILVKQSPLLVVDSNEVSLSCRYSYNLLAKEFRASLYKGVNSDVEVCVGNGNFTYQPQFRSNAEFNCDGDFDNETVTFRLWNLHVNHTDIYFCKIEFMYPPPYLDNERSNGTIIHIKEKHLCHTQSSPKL

binding to mCD28 on the cell surface [2]: do not bind CD28 on the cell surface
binding to sCD28 ([4]; immobilized recombinant human sCD28): much stronger binding to sCD28
binding to mouse CD28 [5]: able to bind mouse CD28
B1: antibody #2: sCD28 binding (sweeping) antibody; heavy chain SEQ ID NO: 46, light chain SEQ ID NO: 48 (antibody)
heavy: QVQLQQSGAELARPGASVKLSCKASGYTFTSYWMQWIKKRPGQGLEWIGAIYPGDGDTRYTQKFKGKATLTADKSSTTAYMQLSSLASEDSAVYFCARNYRYSSFGYWGQGTLVTVSAAKTTPPSVYPLAPGCGDTTGSSVTLGCLVKGYFPESVTVTWNSGSLSSSVHTFPALLQSGLYTMSSSVTVPSSTWPSQTVTCSVAHPASSTTVDKKLEPSGPISTINPCPPCKECHKCPAPNLEGGPSVFIFPPNIKDVLMISLTPKVTCVVVDVSEDDPDVQISWFVNNVEVHTAQTQTHREDYNSTIRVVSTLPIQHQDWMSGKEFKCKVNNKDLPSPIERTISKIKGLVRAPQVYILPPPAEQLSRKDVSLTCLVVGFNPGDISVEWTSNGHTEENYKDTAPVLDSDGSYFIYSKLNMKTSKWEKTDSFSCNVRHEGLKNYYLKKTISRSPGK
light: DIVMTQSPSSLTVTAGEKVTLSCKSSQSLLNSGNQKNYLTWYQQKPGQPPQLLIYWASTRESGVPDRFTGSGSGTDFTLTISSVQAEDLAVYYCQSDYSYPLTFGAGTKLELKRADAAPTVSIFPPSSEQLTSGGASVVCFLNNFYPKDINVKWKIDGSERQNGVLNSWTDQDSKDSTYSMSSTLTLTKDEYERHNSYTCEATHKTSTSPIVKSFNRNEC
IFNγ secretion (agonism) [1]: no effect on IFN secretion
removal of sCD28 from plasma [3]: capable of binding and removing sCD28 from plasma
relationship of signal to concentration [4]: a linear relationship to increasing antibody concentrations over the entire range examined
CD86 binding to mCD28 [6]: none of antibody #1 (FIG. 15B), antibody #2 (FIG. 15C), or antibody #3 (FIG. 15D) blocked binding of CD86 to mCD28
